Measured values as given in the supplement of paper PMC9112550, “Optimization of the antimicrobial peptide Bac7 by deep mutational scanning” (BMC Biology, 2022).

Tested on: Escherichia coli TOP10
Experiment: shrunken log2 fold change of peptide-encoding DNA abundance (4.5 h post-induction vs induction); higher = less antimicrobial activity (less host growth inhibition)
Conditions: time post-induction: 4.5 h; library: site-saturation at positions 5, 18, 19, 20
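Note: peptides expressed intracellularly from a pBAD plasmid library in pooled LB shake-flask culture, induced with 0.3% L-arabinose, DNA abundance read by NGS, three biological replicates, DESeq2 with apeglm shrinkage.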

| Sequence | shrunken log2 fold change |
| --- | --- |
| RRIRARPPRLPRPRPRPVVAPRP | 0.604 |
| RRIRIRPPRLPRPRPRPLVWPRP | 0.0428 |
| RRIRKRPPRLPRPRPRPTPVPRP | 0.756 |
| RRIRYRPPRLPRPRPRPRCWPRP | 0.136 |
| RRIRDRPPRLPRPRPRPSVVPRP | -0.0127 |
| RRIRQRPPRLPRPRPRPRLNPRP | -0.111 |
| RRIRWRPPRLPRPRPRPMKAPRP | 0.294 |
| RRIRTRPPRLPRPRPRPKHTPRP | -0.0343 |
| RRIRWRPPRLPRPRPRPDSSPRP | -0.238 |
| RRIRKRPPRLPRPRPRPGSVPRP | 0.162 |
| RRIRGRPPRLPRPRPRPGEPPRP | 0.276 |
| RRIRFRPPRLPRPRPRPCRDPRP | -0.274 |
| RRIRVRPPRLPRPRPRPMSHPRP | 0.171 |
| RRIRIRPPRLPRPRPRPKNKPRP | -0.68 |
| RRIRHRPPRLPRPRPRPVVWPRP | 0.524 |
| RRIRGRPPRLPRPRPRPHNLPRP | -0.262 |
| RRIRHRPPRLPRPRPRPPRLPRP | 0.0241 |
| RRIRHRPPRLPRPRPRPITQPRP | -0.0204 |
| RRIRNRPPRLPRPRPRPFHQPRP | 0.151 |
| RRIRFRPPRLPRPRPRPILQPRP | -0.0746 |
| RRIRNRPPRLPRPRPRPRFYPRP | -0.201 |
| RRIRERPPRLPRPRPRPCGIPRP | 0.00383 |
| RRIRIRPPRLPRPRPRPDQLPRP | -0.172 |
| RRIRCRPPRLPRPRPRPQWVPRP | -0.103 |
| RRIRHRPPRLPRPRPRPLEDPRP | 0.0039 |

| Sequence | shrunken log2 fold change |
| --- | --- |
| RRIRTRPPRLPRPRPRPAEVPRP | -0.108 |
| RRIRARPPRLPRPRPRPVLEPRP | 0.488 |
| RRIRMRPPRLPRPRPRPICYPRP | -0.119 |
| RRIRNRPPRLPRPRPRPPMLPRP | -0.0624 |
| RRIRIRPPRLPRPRPRPPGQPRP | -0.125 |
| RRIRLRPPRLPRPRPRPGSWPRP | 0.18 |
| RRIRLRPPRLPRPRPRPHEYPRP | -0.0491 |
| RRIRERPPRLPRPRPRPDFIPRP | -0.092 |
| RRIRNRPPRLPRPRPRPKNDPRP | -0.0949 |
| RRIRHRPPRLPRPRPRPLFKPRP | -0.183 |
| RRIRERPPRLPRPRPRPANWPRP | 0.173 |
| RRIRMRPPRLPRPRPRPDHKPRP | 0.0228 |
| RRIRIRPPRLPRPRPRPWHFPRP | -0.0737 |
| RRIRYRPPRLPRPRPRPAKIPRP | -0.0227 |
| RRIRARPPRLPRPRPRPDPFPRP | 0.0855 |
| RRIRARPPRLPRPRPRPWVGPRP | 0.271 |
| RRIRLRPPRLPRPRPRPTMLPRP | -0.335 |
| RRIRARPPRLPRPRPRPVLYPRP | 0.0232 |
| RRIRLRPPRLPRPRPRPLWVPRP | 0.0349 |
| RRIRDRPPRLPRPRPRPCHMPRP | 0.00148 |
| RRIRTRPPRLPRPRPRPCGCPRP | 0.0633 |
| RRIRPRPPRLPRPRPRPEIAPRP | 0.189 |
| RRIRQRPPRLPRPRPRPASEPRP | -0.019 |
| RRIRYRPPRLPRPRPRPVYWPRP | -0.763 |
| RRIRPRPPRLPRPRPRPLGHPRP | 0.163 |

| Sequence | shrunken log2 fold change |
| --- | --- |
| RRIRLRPPRLPRPRPRPTVGPRP | 0.0924 |
| RRIRWRPPRLPRPRPRPIQFPRP | -0.0539 |
| RRIRGRPPRLPRPRPRPWNHPRP | -0.052 |
| RRIRARPPRLPRPRPRPIRAPRP | 0.242 |
| RRIRDRPPRLPRPRPRPRRSPRP | 0.174 |
| RRIRGRPPRLPRPRPRPQREPRP | 0.225 |
| RRIRPRPPRLPRPRPRPDYNPRP | -0.553 |
| RRIRLRPPRLPRPRPRPKFAPRP | 0.293 |
| RRIRHRPPRLPRPRPRPKPKPRP | 0.231 |
| RRIRERPPRLPRPRPRPLIFPRP | -0.406 |
| RRIRPRPPRLPRPRPRPETCPRP | 0.787 |
| RRIRIRPPRLPRPRPRPMSLPRP | -0.0475 |
| RRIRGRPPRLPRPRPRPIGCPRP | 0.0147 |
| RRIRWRPPRLPRPRPRPNGPPRP | -0.0107 |
| RRIRWRPPRLPRPRPRPPTYPRP | -0.104 |
| RRIRMRPPRLPRPRPRPNSDPRP | 0.0685 |
| RRIRLRPPRLPRPRPRPGHSPRP | -0.0313 |
| RRIRLRPPRLPRPRPRPHAPPRP | 0.304 |
| RRIRYRPPRLPRPRPRPGNKPRP | -0.292 |
| RRIRERPPRLPRPRPRPHACPRP | 0.013 |
| RRIRIRPPRLPRPRPRPDPEPRP | -0.158 |
| RRIRIRPPRLPRPRPRPWAGPRP | -0.291 |
| RRIRSRPPRLPRPRPRPGWRPRP | 0.923 |
| RRIRCRPPRLPRPRPRPCKCPRP | -0.0236 |
| RRIRNRPPRLPRPRPRPARCPRP | 0.319 |

| Sequence | shrunken log2 fold change |
| --- | --- |
| RRIRTRPPRLPRPRPRPRQDPRP | -0.144 |
| RRIRVRPPRLPRPRPRPKNEPRP | 0.00832 |
| RRIRDRPPRLPRPRPRPTMNPRP | 0.116 |
| RRIRERPPRLPRPRPRPKFWPRP | 0.375 |
| RRIRTRPPRLPRPRPRPYEEPRP | -0.573 |
| RRIRCRPPRLPRPRPRPHMPPRP | -0.585 |
| RRIRERPPRLPRPRPRPRQHPRP | -0.0319 |
| RRIRPRPPRLPRPRPRPSIKPRP | -0.33 |
| RRIRARPPRLPRPRPRPYKAPRP | -0.302 |
| RRIRPRPPRLPRPRPRPTMVPRP | -0.0466 |
| RRIRQRPPRLPRPRPRPEGSPRP | -0.00794 |
| RRIRRRPPRLPRPRPRPPPEPRP | 1.37 |
| RRIRPRPPRLPRPRPRPDWSPRP | -0.195 |
| RRIRHRPPRLPRPRPRPAWTPRP | -0.136 |
| RRIRSRPPRLPRPRPRPMICPRP | -0.0898 |
| RRIRPRPPRLPRPRPRPYINPRP | -0.739 |
| RRIRSRPPRLPRPRPRPRPKPRP | 0.518 |
| RRIRNRPPRLPRPRPRPMEPPRP | -0.0573 |
| RRIRNRPPRLPRPRPRPLCEPRP | -0.107 |
| RRIRRRPPRLPRPRPRPWPEPRP | -0.201 |
| RRIRYRPPRLPRPRPRPSRHPRP | -0.649 |
| RRIRGRPPRLPRPRPRPFKTPRP | -0.341 |
| RRIRARPPRLPRPRPRPAMRPRP | 0.825 |
| RRIRRRPPRLPRPRPRPEYNPRP | -0.103 |
| RRIRIRPPRLPRPRPRPIDQPRP | -0.341 |

| Sequence | shrunken log2 fold change |
| --- | --- |
| RRIRIRPPRLPRPRPRPQYHPRP | -0.436 |
| RRIRKRPPRLPRPRPRPRSCPRP | 0.239 |
| RRIRDRPPRLPRPRPRPDHNPRP | 0.0311 |
| RRIRLRPPRLPRPRPRPLFLPRP | -0.551 |
| RRIRRRPPRLPRPRPRPEGSPRP | 0.223 |
| RRIRFRPPRLPRPRPRPINYPRP | -0.0562 |
| RRIRMRPPRLPRPRPRPIPNPRP | 0.983 |
| RRIRDRPPRLPRPRPRPSRQPRP | -0.12 |
| RRIRWRPPRLPRPRPRPWYWPRP | -0.209 |
| RRIRNRPPRLPRPRPRPSVTPRP | 0.0789 |
| RRIRLRPPRLPRPRPRPNIKPRP | -0.321 |
| RRIRVRPPRLPRPRPRPKWRPRP | 0.327 |
| RRIRHRPPRLPRPRPRPKYFPRP | -0.0202 |
| RRIRARPPRLPRPRPRPGWNPRP | 0.545 |
| RRIRPRPPRLPRPRPRPEVNPRP | 0.188 |
| RRIRYRPPRLPRPRPRPWARPRP | -0.116 |
| RRIRDRPPRLPRPRPRPEDWPRP | 1.45 |
| RRIRNRPPRLPRPRPRPAHWPRP | 0.142 |
| RRIRTRPPRLPRPRPRPHNWPRP | 0.0661 |
| RRIRIRPPRLPRPRPRPKCHPRP | -0.199 |
| RRIRPRPPRLPRPRPRPIKTPRP | 0.0751 |
| RRIRGRPPRLPRPRPRPYQQPRP | 0.0771 |
| RRIRERPPRLPRPRPRPWFRPRP | -0.214 |
| RRIRARPPRLPRPRPRPKICPRP | 0.0997 |
| RRIRLRPPRLPRPRPRPQATPRP | -0.0468 |

| Sequence | shrunken log2 fold change |
| --- | --- |
| RRIRTRPPRLPRPRPRPEQPPRP | 0.309 |
| RRIRHRPPRLPRPRPRPMENPRP | 0.00439 |
| RRIRCRPPRLPRPRPRPMNTPRP | -0.727 |
| RRIRARPPRLPRPRPRPYWKPRP | -0.0819 |
| RRIRYRPPRLPRPRPRPGEVPRP | -0.0129 |
| RRIRLRPPRLPRPRPRPHGYPRP | -0.528 |
| RRIRGRPPRLPRPRPRPMGAPRP | 0.821 |
| RRIRRRPPRLPRPRPRPEQGPRP | 0.0344 |
| RRIRWRPPRLPRPRPRPELWPRP | 0.729 |
| RRIRQRPPRLPRPRPRPAIGPRP | 0.216 |
| RRIRWRPPRLPRPRPRPDCDPRP | 0.799 |
| RRIRHRPPRLPRPRPRPHNHPRP | -0.577 |
| RRIRGRPPRLPRPRPRPFLEPRP | 0.625 |
| RRIRKRPPRLPRPRPRPESQPRP | 0.967 |
| RRIRFRPPRLPRPRPRPTEAPRP | 0.332 |
| RRIRYRPPRLPRPRPRPESKPRP | -0.859 |
| RRIRERPPRLPRPRPRPRRLPRP | 0.138 |
| RRIRCRPPRLPRPRPRPQFAPRP | -0.239 |
| RRIRYRPPRLPRPRPRPHRVPRP | -0.248 |
| RRIRPRPPRLPRPRPRPYLFPRP | -0.434 |
| RRIRPRPPRLPRPRPRPADEPRP | 0.0954 |
| RRIRMRPPRLPRPRPRPHWMPRP | -0.137 |
| RRIRFRPPRLPRPRPRPAFHPRP | -0.228 |
| RRIRCRPPRLPRPRPRPGTQPRP | 0.00157 |
| RRIRWRPPRLPRPRPRPEREPRP | 0.295 |
